US20080219983A1 (TRIMESTER CUSHION, published 2008)

How the values were obtained:
[1] = target: T1, Plasma-derived FVIII light chain (UniProt P00451 1668-2351); test: solid-phase competition: scFv KM33 (0-30 nM) against FVIII light chain (25 nM) binding to immobilised LRP cluster II (FIG. 5)
T1 construct: domain: light chain (a3-A3-C1-C2); Prepared from plasma as in the cited literature; Human by context (the peptides are said to cover human FVIII regions); Residue numbers count on mature FVIII, without the signal peptide; also called LCh; 80-kDa light chain (a3-A3-C1-C2)
T1 sequence (looked up): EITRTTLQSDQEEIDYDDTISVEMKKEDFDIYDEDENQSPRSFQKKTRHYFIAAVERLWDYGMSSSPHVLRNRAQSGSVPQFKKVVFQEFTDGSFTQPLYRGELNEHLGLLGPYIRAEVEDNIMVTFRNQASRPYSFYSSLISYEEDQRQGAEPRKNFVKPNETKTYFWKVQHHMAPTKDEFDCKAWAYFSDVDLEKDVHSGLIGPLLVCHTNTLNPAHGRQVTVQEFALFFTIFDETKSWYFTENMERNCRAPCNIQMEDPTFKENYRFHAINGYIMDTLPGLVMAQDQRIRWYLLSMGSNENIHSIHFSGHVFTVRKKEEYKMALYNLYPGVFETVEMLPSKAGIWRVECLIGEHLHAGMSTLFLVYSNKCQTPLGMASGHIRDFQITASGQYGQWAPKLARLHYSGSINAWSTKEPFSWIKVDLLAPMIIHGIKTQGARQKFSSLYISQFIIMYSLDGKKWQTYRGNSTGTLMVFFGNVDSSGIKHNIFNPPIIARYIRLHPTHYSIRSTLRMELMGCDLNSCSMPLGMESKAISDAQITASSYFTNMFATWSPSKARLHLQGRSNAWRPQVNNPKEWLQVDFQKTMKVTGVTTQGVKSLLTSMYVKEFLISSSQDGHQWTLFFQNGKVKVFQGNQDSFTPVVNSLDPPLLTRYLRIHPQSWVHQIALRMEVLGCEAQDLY
Method: (§1) FIG. 5. […] Data represent the mean ±S.D. of three experiments.
(§2) Solid-phase Binding Assays—Recombinant LRP clusters II or IV (1 pmol/well) were adsorbed onto microtiter wells in 50 mM NaHCO₃ (pH 9.8) in a volume of 50 μl for 16 h at 4° C. Wells were blocked with 2% (w/v) HSA, 150 mM NaCl, 5 mM CaCl₂, and 50 mM Tris (pH 7.4) in a volume of 200 μl for 1 h at 37° C. […] Bound ligand was detected by incubating with peroxidase-conjugated monoclonal antibody CLB-CAg 12 in the same buffer for 15 min at 37° C. […] Residual FVIII binding was detected as described above.

[2] = target: T1, Plasma-derived FVIII light chain; test: solid-phase competition assay: FVIII light chain (25 nM) on immobilised LRP cluster II (1 pmol/well) in the presence of scFv KM33 (0-30 nM); detection with peroxidase-conjugated CLB-CAg 12
Method: as §1, §2

- Ki [1]: ~5 nM
- IC50 (read off the curve) [2]: ~7 nM
B1: scFv KM33 (scFv)
scFv: EVQLVESGGGVVQPGRSLRLSCVDSGLTFSSYGMHWVRQAPGAGLEWVAVISYDGNDKYYADSVKGRFAISRDNAKNTLYLQMNSLTIEDTAVYYCAKDLIESNIAEAFWGQGTLVTVSSGGGGSGGGGSGGGGSDIQMTQSPSSLSASVGDTVTIACRASRDIRNDLAWYQQKPGKAPKLLIYATSRLQSGVPSRFSGSGSFTDFTLTINSLQPDDSATYYCLQDSDYPLTFGGGTKVDIKRAAAEQKLISEEDLNGAAHHHHHH
notes: Expressed in E. coli TG1
